According to the supplement of paper PMC10065799, “High-throughput profiling of sequence recognition by tyrosine kinases and SH2 domains using bacterial peptide display” (eLife, 2023):
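Further: 11-residue human phosphosite peptides and single-mutation variants displayed on the E. coli surface, counted by deep sequencing, each peptide's frequency after selection divided by its frequency in the unselected input library; frequency after pTyr selection over input frequency; kinase dosed for 20-30% of maximal phosphorylation in three min.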

These sequences were tested against FGFR1 (UniProt P11362) (assay: phosphorylation enrichment, bacterial display (enrichment ratio); higher = better substrate or ligand; peptides without Tyr show the background).
Sequence of FGFR1 (P11362 whole entry, looked up): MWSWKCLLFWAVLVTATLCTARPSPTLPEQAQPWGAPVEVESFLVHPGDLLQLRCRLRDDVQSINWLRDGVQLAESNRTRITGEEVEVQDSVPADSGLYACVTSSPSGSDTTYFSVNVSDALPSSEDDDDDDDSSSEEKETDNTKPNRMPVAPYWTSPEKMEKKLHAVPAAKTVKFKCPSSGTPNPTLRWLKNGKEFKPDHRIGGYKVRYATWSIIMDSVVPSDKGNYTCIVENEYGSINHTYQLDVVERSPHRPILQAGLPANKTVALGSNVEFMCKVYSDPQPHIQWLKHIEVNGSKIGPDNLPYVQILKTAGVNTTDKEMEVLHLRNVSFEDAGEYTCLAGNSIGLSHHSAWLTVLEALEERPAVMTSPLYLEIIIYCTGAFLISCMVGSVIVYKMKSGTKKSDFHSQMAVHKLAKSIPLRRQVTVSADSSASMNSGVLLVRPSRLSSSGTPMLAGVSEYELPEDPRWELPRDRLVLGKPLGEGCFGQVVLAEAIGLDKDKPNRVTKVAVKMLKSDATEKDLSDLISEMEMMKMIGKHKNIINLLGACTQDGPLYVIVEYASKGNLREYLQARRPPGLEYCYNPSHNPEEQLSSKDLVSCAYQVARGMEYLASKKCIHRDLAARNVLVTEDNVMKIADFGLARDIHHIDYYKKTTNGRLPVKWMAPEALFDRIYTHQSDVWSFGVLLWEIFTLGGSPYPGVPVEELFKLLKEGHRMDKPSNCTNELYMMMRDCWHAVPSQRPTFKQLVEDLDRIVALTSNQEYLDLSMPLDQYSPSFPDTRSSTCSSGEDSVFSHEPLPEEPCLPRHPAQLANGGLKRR
QRRLVYFEGGA [RYR1_Y245_YF] gave a phosphorylation enrichment of 1.34. TFACSYTPVKA [FLNB_Y708_YF] was tested, and the phosphorylation enrichment was 0.582. Work on RETPLYKACER [ASB2_Y162] yielded a phosphorylation enrichment of 0.457. Sequence DVYVSYDCGKS [SORL1_Y139_Y141C] has a phosphorylation enrichment of 1.79. Work on PSELYYSKISP [SMG1_Y2254_G2258S] yielded a phosphorylation enrichment of 11.7. NEKNIYGVPLM [BMPR2_Y247_R248G] gave a phosphorylation enrichment of 0.511. With YPRTGYSVPYG [TGM1_Y370_L366P] the phosphorylation enrichment was 0.525. In the case of FGSGNYNDFGN [HNRNPA2B1_Y300_YF], the phosphorylation enrichment is reported as 0.378. INPIIYAFVGE [CCR5_Y297] showed a phosphorylation enrichment of 3.48. For KLIMECLPYGS [JAK2_Y931_Y931C], the phosphorylation enrichment was 0.542. FGVVGYLAIVF [RNF175_Y155_M159V] gave a phosphorylation enrichment of 0.559. In the case of ADDSFYTVRSA [ZAP70_Y493_A495V_YF], the phosphorylation enrichment is reported as 0.444. Sequence ERNTVYSSSGV [NELL2_Y350] has a phosphorylation enrichment of 0.372. FGAHKYHPLPV [OAT_Y55_N54K_YF] was tested, and the phosphorylation enrichment was 0.397. With WFPYTYVEEDE [VAV3_Y842_S840Y] the phosphorylation enrichment was 1.56. EVNETYVPKEF [ALB_Y521_D518N] was tested, and the phosphorylation enrichment was 0.524. VAFVFYKSIGP [ADGRL4_Y302_YF] was tested, and the phosphorylation enrichment was 0.543. With SILAVYSKDIF [PANK2_Y400_N404I_YF] the phosphorylation enrichment was 0.445. LARDMCDKEYY [MET_Y1230_Y1230C] showed a phosphorylation enrichment of 0.995. Sequence DNQYAYLKAII [HNF4A_Y288_E285Q] has a phosphorylation enrichment of 2.72. AEPPDYSPVTH [ADGRG2_Y285] gave a phosphorylation enrichment of 0.54. HFPDVYAREQL [ALX3_Y181_YF] was tested, and the phosphorylation enrichment was 0.55. With RRNNSYTCYTA [SLC20A2_Y386] the phosphorylation enrichment was 0.645. In the case of LLIVEYAKFGS [RET_Y806_YF], the phosphorylation enrichment is reported as 0.909. For RLVVVYPWTQR [HBB_Y36_L33V], the phosphorylation enrichment was 0.491. SEHLIYLEFKS [RASGRP1_Y215_T214I] gave a phosphorylation enrichment of 1.61. For LDLSFYTTSSS [EMD_Y182_P183T_YF], the phosphorylation enrichment was 1.12. Work on SVMAEYGLYGA [VSX2_Y219] yielded a phosphorylation enrichment of 0.529. CTTIHDNFMCN [TP53_Y234_Y234D_YF] gave a phosphorylation enrichment of 0.516. With LRKQDYQEILD [SLC35G2_Y403] the phosphorylation enrichment was 0.629. RLRIDYERVSQ [DSP_Y1542] showed a phosphorylation enrichment of 0.543. For YHLLPYTIRAM [PARS2_Y93_V95I], the phosphorylation enrichment was 16.6. PFNAEYGGGGG [AKR1B10_Y316] gave a phosphorylation enrichment of 1.06.

Each sequence was assayed against Fyn (UniProt P06241) in the same assay as above.
Sequence of Fyn (P06241 whole entry, looked up): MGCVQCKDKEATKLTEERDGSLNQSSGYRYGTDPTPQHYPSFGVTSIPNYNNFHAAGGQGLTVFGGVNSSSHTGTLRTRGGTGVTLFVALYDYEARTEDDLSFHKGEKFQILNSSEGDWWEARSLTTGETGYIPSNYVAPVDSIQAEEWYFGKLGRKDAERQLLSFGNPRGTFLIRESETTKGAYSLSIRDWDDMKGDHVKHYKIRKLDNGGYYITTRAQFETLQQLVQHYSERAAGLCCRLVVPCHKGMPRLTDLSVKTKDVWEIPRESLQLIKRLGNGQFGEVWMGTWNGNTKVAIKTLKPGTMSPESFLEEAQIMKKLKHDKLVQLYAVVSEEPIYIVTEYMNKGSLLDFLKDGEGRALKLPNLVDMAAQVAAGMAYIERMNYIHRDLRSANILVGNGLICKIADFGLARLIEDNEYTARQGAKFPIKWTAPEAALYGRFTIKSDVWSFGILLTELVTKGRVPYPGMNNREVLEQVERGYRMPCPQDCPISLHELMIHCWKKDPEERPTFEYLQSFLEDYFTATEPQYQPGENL
QRRLVYFEGGA [RYR1_Y245_YF] was tested, and the phosphorylation enrichment was 1.02. Work on TFACSYTPVKA [FLNB_Y708_YF] yielded a phosphorylation enrichment of 0.444. In the case of RETPLYKACER [ASB2_Y162], the phosphorylation enrichment is reported as 0.457. With DVYVSYDCGKS [SORL1_Y139_Y141C] the phosphorylation enrichment was 6.11. Work on PSELYYSKISP [SMG1_Y2254_G2258S] yielded a phosphorylation enrichment of 6.66. NEKNIYGVPLM [BMPR2_Y247_R248G] gave a phosphorylation enrichment of 4.93. YPRTGYSVPYG [TGM1_Y370_L366P] was tested, and the phosphorylation enrichment was 0.459. For FGSGNYNDFGN [HNRNPA2B1_Y300_YF], the phosphorylation enrichment was 0.347. With INPIIYAFVGE [CCR5_Y297] the phosphorylation enrichment was 6.13. In the case of KLIMECLPYGS [JAK2_Y931_Y931C], the phosphorylation enrichment is reported as 0.513. For FGVVGYLAIVF [RNF175_Y155_M159V], the phosphorylation enrichment was 0.452. ADDSFYTVRSA [ZAP70_Y493_A495V_YF] gave a phosphorylation enrichment of 1.21. ERNTVYSSSGV [NELL2_Y350] was tested, and the phosphorylation enrichment was 0.544. FGAHKYHPLPV [OAT_Y55_N54K_YF] was tested, and the phosphorylation enrichment was 0.309. Work on WFPYTYVEEDE [VAV3_Y842_S840Y] yielded a phosphorylation enrichment of 0.843. For EVNETYVPKEF [ALB_Y521_D518N], the phosphorylation enrichment was 0.564. Sequence VAFVFYKSIGP [ADGRL4_Y302_YF] has a phosphorylation enrichment of 0.501. Work on SILAVYSKDIF [PANK2_Y400_N404I_YF] yielded a phosphorylation enrichment of 1.11. For LARDMCDKEYY [MET_Y1230_Y1230C], the phosphorylation enrichment was 0.902. With DNQYAYLKAII [HNF4A_Y288_E285Q] the phosphorylation enrichment was 0.456. AEPPDYSPVTH [ADGRG2_Y285] showed a phosphorylation enrichment of 0.542. Work on HFPDVYAREQL [ALX3_Y181_YF] yielded a phosphorylation enrichment of 0.588. For RRNNSYTCYTA [SLC20A2_Y386], the phosphorylation enrichment was 0.73. Work on LLIVEYAKFGS [RET_Y806_YF] yielded a phosphorylation enrichment of 1.4. For RLVVVYPWTQR [HBB_Y36_L33V], the phosphorylation enrichment was 0.771. In the case of SEHLIYLEFKS [RASGRP1_Y215_T214I], the phosphorylation enrichment is reported as 6.74. LDLSFYTTSSS [EMD_Y182_P183T_YF] was tested, and the phosphorylation enrichment was 0.93. Work on SVMAEYGLYGA [VSX2_Y219] yielded a phosphorylation enrichment of 6.65. With CTTIHDNFMCN [TP53_Y234_Y234D_YF] the phosphorylation enrichment was 0.441. Sequence LRKQDYQEILD [SLC35G2_Y403] has a phosphorylation enrichment of 0.529. RLRIDYERVSQ [DSP_Y1542] was tested, and the phosphorylation enrichment was 0.43. Work on YHLLPYTIRAM [PARS2_Y93_V95I] yielded a phosphorylation enrichment of 3.83. Work on PFNAEYGGGGG [AKR1B10_Y316] yielded a phosphorylation enrichment of 1.14.
